# Substitutions are numbered along the chain they refer to.
# B1: mAb #47 (antibody, V domains shown)
# VH: QVQLQESGPGLVKPSETLSLTCSVSGGSISVYYWNWIRQSPGKGLEWIASMYYTGITNYNPSLKSRVTMSVDMSKNQFSLKLSSVTAADTAVYYCARTMGIDQNNRGWPPAGYYFGMDVWGQGTTVTVSS
# VL: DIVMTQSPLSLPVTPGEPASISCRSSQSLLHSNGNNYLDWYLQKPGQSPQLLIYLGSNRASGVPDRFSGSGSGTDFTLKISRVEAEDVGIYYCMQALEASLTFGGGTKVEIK
# notes: also called mAb ID: 47; Mab No. 47
# B2: mAb #41 (antibody, V domains shown)
# VH: EVQLVESGGGPVQPGGSLKLSCAASGFTFSNYEMYWVRQAPGKGLEWVSYISTSPAITYYADSVRGRFTISRDNAKSSLYLHMNSLRAEDTAVYYCATISHQQFSSGWNAWFDPWGQGTLVTVSS
# VL: NFMLTQPHSVSESPGKTVTISCTGSSGSIASNYVQWYRQRPGSAPTTVIYENYQRPSGVPARFSGSIDRSSNSASLTISGLQTDDEADYYCQSYDNNNLWVFGGGTKLTVL
# notes: also called mAb ID: 41; Mab No. 41
# B3: mAb #57 (antibody, V domains shown)
# VH: QVQLVESGGGVVQSGRSLRLSCAASGFTFRSYAMHWVRQAPGKGLEWVADLSLDGSHKYADSVRGRFTISSDSSKNTVYLQMNSLRTEDTAIYYCARAAGIMVAGTFLTEFYFDYWGQGTLVTVSS
# VL: QSVLTQPPSVSGAPGQRVTISCTGSSSNIGAGYDVHWYQQLPGTAPKLLIYGNIKRPSGVPDRFSGSKSGTSASLAITGLQTEDEADYYCQSYDSSLSAYYVFGTGTRVTVL
# notes: also called mAb ID: 57; Mab No. 57
# B4: mAb #33 (antibody, V domains shown)
# VH: DVQLVESGGGLVQPGGPSRLSCSASRFTFSNYAMYWVRQAPGKGLEYVSSISSDGGSTYYAESVKGRFTISRDNSKNTLYLQMRSLRAEDAAVYYCVTDVLRLPYSTGWSPGDFIYWGQGTLVTVSS
# VL: DIQMTQSPSILYASVGDRVTITCRASQSVSSWLAWYQQKPGKVPKLLIYQASTLENGVPSRFSGSGSGTEFILTISSLQPDDFATYYCQHYNVLWTFGQGTKVEI
# notes: also called mAb ID: 33; Mab No. 33
# B5: mAb #49 (antibody, V domains shown)
# VH: B4 VH with P17S, S18V
# VL: DIQMTQSPSILYASVGDRVTITCRASQSVSSWLAWYQQKPGKVPKLLIYQASTLENGVPSRFSGSGSGTEFILTISSLQPDDFATYYCQHYNVLWTFGQGTKVEIK
# notes: also called mAb ID: 49; Mab No. 49
# B6: mAb #2 (antibody, V domains shown)
# VH: EVQLVESGGGLVKPGGSLRLSCKASGLIVSDAWMSWVRQSPGKGLEWVGRIKSEINGGTIDYAAPVKGRFTILRDDSKNTLYLQINSLKTEDTAVYYCTTRLLFSPWGQGTLVTVSS
# VL: QPVLTQPPSSSASPGESARLTCTLPSDINVAYYNIYWYQQKPGSPPRYLLYYYSDSDQGQGSGVPSRFSGSKDASANTGILFISGLQSEDEADYYCMIWTSNASMFGGGTKLTVL
# notes: also called mAb ID: 2; Mab No. 2
# B7: mAb #27 (antibody, V domains shown)
# VH: QVQLQESGPGLVKPLETLSLTCAVSGVSINSYYWSWIRQPPGKGLEWIGNVFYSGSTKYNPSLESRVAMTVDSSRNQVSLRLNSVTAADTAVYYCAREGVGYGYNNYGGNWFDPWGQGTLVTVSS
# VL: EVVLTQSPGTLSLSPGERVTLSCRASQSVTSSNLAWYQQKPGQTPRLLISGASSRATGIPDRFSGSGSGTDFTLTISRLEPEDFAVYYCQQYANSPVTFGGGTKLEIK
# notes: also called mAb ID: 27; Mab No. 27
# B8: mAb #46 (antibody, V domains shown)
# VH: QVQLQESGPGLVKPSETLSLTCTVSGGSINSYYWSWIRQSPGKGLEWIGYVFYSGITKYNPSLQSRVTISLDMGKNQFSLKLTSVNAADAAVYYCARNFPSYTPDWFFDLWGRGTLVTVSS
# VL: EIVLTQSPGTLSLSPGERATLSCRASQSVSSDNLAWYQQKPGQPPRLLIYGASHRATGIPDRFSGSGSGTDFTLTISRLEPEDFAVYHCQQYGSSPLTFGGGTKVEIK
# notes: also called mAb ID: 46; Mab No. 46
# B9: mAb #30 (antibody, V domains shown)
# VH: QVQLVQSGAEVKKPGASVTVSCKASGYAFTSFYLHWVRQAPGQGLEWMGIINPSDGRTRYAQKFQGRVTMTSDTSTNTVYVELSSLRSEDTAIYYCARGAIGNYNAREALDVWGRGTTVTVSS
# VL: EIVMTQSPATLSVSPGESATLSCRASQSINSNLAWYQQKPGQAPRLLIFSASSRATGIPARFSGSGSGTEFTLTISSLQSDDFAVYYCQQYNIWPPEHTFGQGTRLQIK
# notes: also called mAb ID: 30; Mab No. 30
# Key:
# [1] = biological target: T1, CDC-9 triple layered particles (TLPs), G1P[8] (human rotavirus); experiment: ELISA, CDC-9 TLPs
# [2] = biological target: T1, CDC-9 triple layered particles (TLPs), …; experiment: cell-based or functional assay
# [3] = biological target: T2, VP4 of rotavirus strain DS1 (G2P[4]) (human rotavirus, UniProt Q14197); experiment: cell-based or functional assay
# [4] = biological target: T3, VP4 of rotavirus strain Wa (G1P[8]) (human rotavirus, UniProt P11193 1-775); experiment: immunostaining, RV-infected MA104 cells
# T3 construct: whole, on cells
# T3 sequence (P11193 whole entry): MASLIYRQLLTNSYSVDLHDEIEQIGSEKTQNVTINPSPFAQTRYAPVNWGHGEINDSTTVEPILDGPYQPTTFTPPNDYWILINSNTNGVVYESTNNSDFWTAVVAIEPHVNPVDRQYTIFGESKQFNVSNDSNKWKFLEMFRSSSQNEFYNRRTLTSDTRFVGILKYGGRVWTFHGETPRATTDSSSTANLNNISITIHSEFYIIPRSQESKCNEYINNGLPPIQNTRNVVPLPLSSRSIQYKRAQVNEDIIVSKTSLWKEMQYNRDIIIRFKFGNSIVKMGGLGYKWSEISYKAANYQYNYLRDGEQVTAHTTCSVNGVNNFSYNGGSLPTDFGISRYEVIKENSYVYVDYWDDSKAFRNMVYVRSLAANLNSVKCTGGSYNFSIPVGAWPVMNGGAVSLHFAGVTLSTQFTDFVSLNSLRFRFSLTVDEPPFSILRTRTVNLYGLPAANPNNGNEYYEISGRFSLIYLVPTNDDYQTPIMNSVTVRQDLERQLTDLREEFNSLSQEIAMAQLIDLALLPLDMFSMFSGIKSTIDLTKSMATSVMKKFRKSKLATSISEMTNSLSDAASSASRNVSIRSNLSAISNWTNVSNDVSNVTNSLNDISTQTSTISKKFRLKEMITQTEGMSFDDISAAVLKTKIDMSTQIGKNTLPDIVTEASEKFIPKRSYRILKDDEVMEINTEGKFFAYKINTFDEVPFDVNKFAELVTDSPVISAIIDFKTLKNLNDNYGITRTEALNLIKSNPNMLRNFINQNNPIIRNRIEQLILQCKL
# [5] = biological target: T2, VP4 of rotavirus strain DS1 (G2P[4]); experiment: immunostaining, RV-infected MA104 cells
# [6] = biological target: VP4 of rotavirus strain #321 (G10P[11]) (human rotavirus); experiment: cell-based or functional assay
# [7] = biological target: VP4 of rotavirus strain 69M (G8P[10]) (human rotavirus); experiment: cell-based or functional assay
# [8] = biological target: T3, VP4 of rotavirus strain Wa (G1P[8]); experiment: cell-based or functional assay
# [9] = biological target: VP7 of rotavirus strain OSU (G5P[7]) (porcine rotavirus); experiment: cell-based or functional assay
# [10] = biological target: T4, VP7 of rotavirus strain RRV (G3P[3]) (simian rotavirus, UniProt P12476 51-326); experiment: cell-based or functional assay
# T4 sequence (P12476 51-326): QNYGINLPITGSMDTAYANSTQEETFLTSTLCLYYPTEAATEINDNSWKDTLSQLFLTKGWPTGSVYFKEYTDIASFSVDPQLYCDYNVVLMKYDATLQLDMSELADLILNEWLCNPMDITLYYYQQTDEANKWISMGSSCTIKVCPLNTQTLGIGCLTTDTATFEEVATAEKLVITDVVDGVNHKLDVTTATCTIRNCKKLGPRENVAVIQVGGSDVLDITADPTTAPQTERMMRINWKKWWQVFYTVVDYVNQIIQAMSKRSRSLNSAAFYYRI
# [11] = biological target: VP7 of rotavirus strain DS1 (G2P[4]) (human rotavirus); experiment: cell-based or functional assay
# [12] = biological target: T5, VP7 of rotavirus strain ST3 (G4P[6]) (human rotavirus); experiment: immunostaining, RV-infected MA104 cells
# T5 construct: whole, on cells
# T5 sequence (P10501 51-326): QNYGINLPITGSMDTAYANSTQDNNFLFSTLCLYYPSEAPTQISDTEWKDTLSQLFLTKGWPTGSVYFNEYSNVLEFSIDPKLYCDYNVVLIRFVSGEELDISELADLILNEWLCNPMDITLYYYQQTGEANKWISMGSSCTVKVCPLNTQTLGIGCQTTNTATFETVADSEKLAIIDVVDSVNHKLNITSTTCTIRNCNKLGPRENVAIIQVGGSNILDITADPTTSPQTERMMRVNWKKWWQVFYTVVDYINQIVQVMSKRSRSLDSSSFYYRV
# [13] = biological target: T6, VP7 of rotavirus strain OSU (G5P[7]) (porcine rotavirus); experiment: immunostaining, RV-infected MA104 cells
# T6 construct: whole, on cells; also called OSU G5[7]
# T6 sequence (P08406 51-326): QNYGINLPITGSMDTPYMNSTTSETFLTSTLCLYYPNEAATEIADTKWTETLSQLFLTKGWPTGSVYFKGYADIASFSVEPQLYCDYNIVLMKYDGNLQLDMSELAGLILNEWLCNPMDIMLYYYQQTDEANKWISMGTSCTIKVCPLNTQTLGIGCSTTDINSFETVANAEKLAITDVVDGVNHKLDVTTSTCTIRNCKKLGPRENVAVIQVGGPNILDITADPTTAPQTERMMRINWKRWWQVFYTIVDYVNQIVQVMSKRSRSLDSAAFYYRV
# [14] = biological target: T4, VP7 of rotavirus strain RRV (G3P[3]); experiment: immunostaining, RV-infected MA104 cells
# [15] = biological target: T7, VP7 of rotavirus strain DS1 (G2P[4]) (human rotavirus); experiment: immunostaining, RV-infected MA104 cells
# T7 construct: whole, on cells
# T7 sequence (P11850 51-326): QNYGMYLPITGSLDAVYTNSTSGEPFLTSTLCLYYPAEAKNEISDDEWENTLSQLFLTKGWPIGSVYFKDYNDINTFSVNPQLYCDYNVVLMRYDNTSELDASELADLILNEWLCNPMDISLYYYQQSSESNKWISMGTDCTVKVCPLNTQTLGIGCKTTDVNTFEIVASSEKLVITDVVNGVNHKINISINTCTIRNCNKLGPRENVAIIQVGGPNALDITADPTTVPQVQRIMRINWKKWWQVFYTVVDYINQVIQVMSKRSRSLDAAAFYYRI
# [16] = biological target: VP7 of rotavirus strain 69M (G8P[10]) (human rotavirus); experiment: cell-based or functional assay
# [17] = biological target: VP7 of rotavirus strain #321 (G10P[11]) (human rotavirus); experiment: cell-based or functional assay
# [18] = biological target: VP4 of rotavirus strain OSU (G5P[7]) (porcine rotavirus); experiment: cell-based or functional assay
# [19] = biological target: VP4 of rotavirus strain NCDV (G6P[1]) (bovine rotavirus); experiment: cell-based or functional assay
# [20] = biological target: T8, VP4 of rotavirus strain ST3 (G4P[6]) (human rotavirus); experiment: immunostaining, RV-infected MA104 cells
# T8 construct: whole, on cells
# T8 sequence (P11200 whole entry): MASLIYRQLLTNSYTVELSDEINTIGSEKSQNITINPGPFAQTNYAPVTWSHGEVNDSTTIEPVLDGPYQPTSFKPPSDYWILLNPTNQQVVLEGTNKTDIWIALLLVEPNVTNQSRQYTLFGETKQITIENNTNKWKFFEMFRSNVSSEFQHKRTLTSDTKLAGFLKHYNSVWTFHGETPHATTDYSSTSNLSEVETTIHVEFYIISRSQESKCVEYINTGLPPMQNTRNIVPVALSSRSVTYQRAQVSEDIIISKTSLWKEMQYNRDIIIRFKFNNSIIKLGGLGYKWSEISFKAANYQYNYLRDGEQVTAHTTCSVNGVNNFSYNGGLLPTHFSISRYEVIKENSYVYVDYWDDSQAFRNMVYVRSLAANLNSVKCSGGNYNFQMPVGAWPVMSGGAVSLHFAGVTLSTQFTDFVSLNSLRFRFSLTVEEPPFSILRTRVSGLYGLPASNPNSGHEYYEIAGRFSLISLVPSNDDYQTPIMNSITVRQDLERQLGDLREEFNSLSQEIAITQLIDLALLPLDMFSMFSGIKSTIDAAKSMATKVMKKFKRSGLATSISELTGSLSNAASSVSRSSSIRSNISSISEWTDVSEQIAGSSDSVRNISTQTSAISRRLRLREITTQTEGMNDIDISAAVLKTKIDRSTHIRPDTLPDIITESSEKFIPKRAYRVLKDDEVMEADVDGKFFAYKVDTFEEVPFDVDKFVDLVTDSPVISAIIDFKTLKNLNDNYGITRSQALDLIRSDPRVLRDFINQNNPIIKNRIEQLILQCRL
# [21] = biological target: T9, VP4 of rotavirus strain OSU (G5P[7]) (porcine rotavirus); experiment: immunostaining, RV-infected MA104 cells
# T9 construct: whole, on cells; also called OSU G5[7]
# T9 sequence (P11114 whole entry): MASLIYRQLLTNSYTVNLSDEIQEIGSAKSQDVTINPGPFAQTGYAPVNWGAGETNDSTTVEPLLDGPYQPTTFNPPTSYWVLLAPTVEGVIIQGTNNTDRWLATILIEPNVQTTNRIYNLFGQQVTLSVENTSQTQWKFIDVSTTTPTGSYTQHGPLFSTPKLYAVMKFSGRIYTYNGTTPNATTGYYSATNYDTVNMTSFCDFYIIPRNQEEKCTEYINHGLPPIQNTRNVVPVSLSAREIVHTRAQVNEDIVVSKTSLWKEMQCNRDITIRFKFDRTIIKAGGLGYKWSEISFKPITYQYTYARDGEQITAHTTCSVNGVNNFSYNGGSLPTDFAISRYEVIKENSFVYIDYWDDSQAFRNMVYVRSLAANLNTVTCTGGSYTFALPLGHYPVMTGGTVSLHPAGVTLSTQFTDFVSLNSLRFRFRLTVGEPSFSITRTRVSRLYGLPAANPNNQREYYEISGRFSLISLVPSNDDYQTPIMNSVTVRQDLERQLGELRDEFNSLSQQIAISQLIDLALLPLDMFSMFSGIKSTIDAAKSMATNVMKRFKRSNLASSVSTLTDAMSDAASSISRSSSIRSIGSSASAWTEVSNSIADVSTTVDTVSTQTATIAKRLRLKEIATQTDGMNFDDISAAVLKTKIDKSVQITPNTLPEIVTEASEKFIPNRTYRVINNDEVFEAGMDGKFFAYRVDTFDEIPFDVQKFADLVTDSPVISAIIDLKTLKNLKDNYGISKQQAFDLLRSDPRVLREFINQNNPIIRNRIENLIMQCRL
# [22] = biological target: T10, VP4 of rotavirus strain NCDV (G6P[1]) (bovine rotavirus); experiment: immunostaining, RV-infected MA104 cells
# T10 construct: whole, on cells
# T10 sequence (P17465 whole entry): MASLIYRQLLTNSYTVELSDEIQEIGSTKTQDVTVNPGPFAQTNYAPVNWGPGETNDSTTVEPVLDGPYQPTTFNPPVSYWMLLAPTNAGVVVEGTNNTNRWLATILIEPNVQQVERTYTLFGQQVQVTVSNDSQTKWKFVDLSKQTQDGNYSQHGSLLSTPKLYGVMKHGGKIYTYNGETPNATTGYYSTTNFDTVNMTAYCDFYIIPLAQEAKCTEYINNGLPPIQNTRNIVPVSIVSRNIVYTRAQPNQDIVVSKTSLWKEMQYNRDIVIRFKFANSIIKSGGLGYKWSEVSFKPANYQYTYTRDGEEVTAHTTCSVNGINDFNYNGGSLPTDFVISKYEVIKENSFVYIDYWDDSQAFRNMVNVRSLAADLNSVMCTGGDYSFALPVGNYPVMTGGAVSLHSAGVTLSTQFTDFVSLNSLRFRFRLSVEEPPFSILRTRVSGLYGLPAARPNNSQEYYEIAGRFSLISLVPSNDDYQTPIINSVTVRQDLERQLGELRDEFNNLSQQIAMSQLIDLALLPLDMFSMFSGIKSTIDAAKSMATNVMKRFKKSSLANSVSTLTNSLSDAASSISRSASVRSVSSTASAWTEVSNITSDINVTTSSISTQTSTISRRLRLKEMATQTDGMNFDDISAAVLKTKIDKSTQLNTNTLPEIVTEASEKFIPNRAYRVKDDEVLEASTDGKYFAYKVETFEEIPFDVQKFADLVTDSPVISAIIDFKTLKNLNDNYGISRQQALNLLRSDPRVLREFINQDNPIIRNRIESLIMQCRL
# [23] = biological target: T11, VP7 of rotavirus strain Wa (G1P[8]) (human rotavirus, UniProt P03532 51-326); experiment: cell-based or functional assay
# T11 sequence (P03532 51-326 limits assumed): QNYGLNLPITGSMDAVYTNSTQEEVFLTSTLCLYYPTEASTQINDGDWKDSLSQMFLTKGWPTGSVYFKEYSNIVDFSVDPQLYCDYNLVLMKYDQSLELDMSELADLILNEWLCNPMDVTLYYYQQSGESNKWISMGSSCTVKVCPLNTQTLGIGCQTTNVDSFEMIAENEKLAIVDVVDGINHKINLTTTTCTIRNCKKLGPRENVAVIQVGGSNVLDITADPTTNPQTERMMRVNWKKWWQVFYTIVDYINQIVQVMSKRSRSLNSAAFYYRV
# [24] = biological target: T11, VP7 of rotavirus strain Wa (G1P[8]); experiment: immunostaining, RV-infected MA104 cells
binder,measurement,setting,value
B1,Minimum concentration for TLP binding,[1],0.5 ng/mL
same,minimum neutralizing concentration,[2],4.9 ng/mL
same,minimum neutralizing concentration,[3],4.9 ng/mL
same,Endpoint immunostaining concentration,[4],0.5 ng/mL
same,Endpoint immunostaining concentration,[5],0.5 ng/mL
same,in vitro neutralization,[6],> 625 ng/mL
same,in vitro neutralization,[7],> 625 ng/mL
B2,minimum neutralizing concentration,[8],0.6 ng/mL
same,Endpoint immunostaining concentration,[4],0.5 ng/mL
B3,Minimum concentration for TLP binding,[1],0.5 ng/mL
same,minimum neutralizing concentration,[9],19.5 ng/mL
same,minimum neutralizing concentration,[10],1.2 ng/mL
same,minimum neutralizing concentration,[11],4.9 ng/mL
same,Endpoint immunostaining concentration,[12],500 ng/mL
same,Endpoint immunostaining concentration,[13],50 ng/mL
same,Endpoint immunostaining concentration,[14],5 ng/mL
same,Endpoint immunostaining concentration,[15],0.5 ng/mL
same,in vitro neutralization,[16],> 625 ng/mL
same,in vitro neutralization,[17],> 625 ng/mL
B4,minimum neutralizing concentration,[8],2.4 ng/mL
same,Endpoint immunostaining concentration,[4],50 ng/mL
B5,Minimum concentration for TLP binding,[1],5 ng/mL
same,minimum neutralizing concentration,[8],39.1 ng/mL
same,minimum neutralizing concentration,[18],156 ng/mL
same,minimum neutralizing concentration,[19],39.1 ng/mL
same,Endpoint immunostaining concentration,[4],5 ng/mL
same,Endpoint immunostaining concentration,[20],5 ng/mL
same,Endpoint immunostaining concentration,[5],0.5 ng/mL
same,Endpoint immunostaining concentration,[21],5.6 ng/mL
same,Endpoint immunostaining concentration,[22],5.6 ng/mL
same,in vitro neutralization,[6],> 625 ng/mL
same,in vitro neutralization,[7],> 625 ng/mL
B6,Endpoint immunostaining concentration,[4],5 ng/mL
B7,minimum neutralizing concentration,[23],0.3 ng/mL
same,Endpoint immunostaining concentration,[24],0.5 ng/mL
B8,Minimum concentration for TLP binding,[1],0.5 ng/mL
same,minimum neutralizing concentration,[23],2.4 ng/mL
same,Endpoint immunostaining concentration,[24],0.5 ng/mL
same,in vitro neutralization,[16],> 625 ng/mL
same,in vitro neutralization,[17],> 625 ng/mL
B9,minimum neutralizing concentration,[8],0.6 ng/mL
same,Endpoint immunostaining concentration,[4],5 ng/mL

# Source: patent publication US20180155411A1 (Stanford University, published 2018)
